Laboratory results as given in US20150273076A1, “SP1 POLYPEPTIDES, MODIFIED SP1 POLYPEPTIDES AND USES THEREOF” (Fulcrum SP Ltd., priority 2006, published 2015).

What was measured:
[1] = Resistance of SP1 complex to organic solvents; format: physicochemical
Description: 150 ul of 1 mg/ml samples in 10 mM sodium phosphate pH 7 were lyophilized overnight and resuspended in 150 μl organic solvents for 10 minutes. Following a 30 minutes speed vac the samples were resuspended in 150 μl water and analyzed by SDS-PAGE.
In order to further test the stability of SP1 and SP1 oligomeric complexes, wild type SP1 and the SP1 variant Cys2 SP1 were dissolved in buffer, exposed to organic solvents methanol and hexane, and analyzed by SDS-PAGE (FIG. 18).
In order to determine the stability of the SP1 complex in organic solvents, SP1 and Cys2 SP1-variant (SEQ ID NO: 3) were dissolved in organic solvents, dried, reconstituted with aqueous solvent, and separated on SDS-PAGE.

[2] = SP1 stability following exposure to SDS and heating; format: physicochemical
Description: The stability of the SP1 complex in the presence of SDS was examined by incubating purified SP1 with SDS at different molar ratios and at different temperatures. Dissociation of the SP1 complex to monomers required a molar ratio greater than 600:1 (SDS:SP1-monomer) accompanied by boiling before loading onto the gel.

proteinase K or alkalase = test: Protease resistance by SDS PAGE; format: physicochemical; conditions: V8 protease, similar with trypsin, subtilysine
Description: Protease Susceptibility Examination of SP1—SP1 (10 μg) prepared either in V8 protease digestion buffer (125 mM Tris-HCl, pH 6.8, 10% glycerol, 0.5% SDS) or standard buffer (20 mM Tris-HCl, pH 7.5, 1 mM EDTA, 50 mM NaCl), was boiled for 2 min or not boiled prior the addition of protease (Staphylococcus aureus V8 protease, trypsin, proteinase K, Sigma Chemicals Inc., Israel). Proteases were added to a final concentration of 50 μg/ml (SP1: protease equal to 1:20, w/w). The digestion was performed at 37° C. for 1 hr. The samples were then prepared in SDS sample buffer, and boiled or not before being subjected to 17% tricine-SDS-PAGE.
SP1 is vulnerable to V8 protease or subtilysine (alcalase, Novo Industries) digestion when disassociated to its monomeric form (boiled in 0.5% SDS, or dissolved inclusion bodies). […] When the oligomer-protease mixture was further boiled in SDS sample buffer, only the SP1 monomer was observed and no peptide fragment was detected on the gel. When the same mixture was subjected to SDS-PAGE analysis without boiling, an intact complex was observed. […] Thus, whereas properly folded SP1 protein is protease resistance, unfolded protein, susceptible to protease, can be removed by protease and heat treatment (FIG. 5).

[3] = Repetitive iv injections of SP1: toxicity, liver histopathology; format: in vivo
Description: 35 mg/Kg SP1 or PBS control were injected iv (tail vein) to C57B1 mail mice on days 0, 9, 16, 23, 37 and 53 (6 and 5 animals in the SP1 and PBS groups, respectively). 55 days past the first injection the animals were sacrificed and their livers were subjected to histopathology analysis.

[4] = Protein melting point by DSC; format: physicochemical
Description: Differential scanning calorimetry study of SP1 indicates in a Tm of 107° C. for SP1. […] Further, folding and refolding of inclusion bodies including insoluble SP1, and the heat stability of the unfolded proteins indicate that the intact monomer, as well as the oligomer, is heat resistant (FIG. 5).

[5] = Fluorescein-amine complex formation (ultrafiltration, size exclusion HPLC); format: binding
Description: FIG. 9 is a histogram showing redox-dependent complex formation with small molecules by Cys2 SP1. Pure Cys 2 mutant (1.5 mg/ml in Phosphate buffered saline, pH=7.5 (PBS)) was incubated for 2 hours at room temp, with I mM fluorescein-amine with or without glutathione (reduced form, GSH 3 mM). Binding reaction was stopped by adding hydrogen peroxide (0.01%), followed by ultra filtration (using a 30 kD cutoff filter) and extensive wash. Absorption analysis was conducted at both 278 and 492 nm, and the results expressed as the 492/278 ratio. Note that in the absence of the reducing agent (GSH), retention of the flourescein-amine is negligible;
FIG. 10 is a graphic representation of the redox-dependent fluorescein amine complex formation by Cys2 SP1, compared to the recombinant SP1. Fluorescein-amine was incubated with pure SP1 or Cys2 SP1 mutant (1.5 mg/ml in PBS pH=7.5) in the absence or presence of DTT (10 mM). Binding reaction was stopped by adding hydrogen peroxide (0.01%), followed by ultra filtration (using 30 kD cutoff filter) and extensive wash. Samples were analyzed by Gel filtration HPLC, and detected at both 228 and 490 nm. Calculated data is shown on the right.
FIG. 11 is a histogram illustrating the concentration dependent complex formation with fluorescein-amine by Cys2 SP1. Huorescien-amine (10, 33, 100 or 333 mM) was incubated with Cys 2 SP1 or pure wild type SP1 in the presence of 10 mM DTT, and the bound and unbound fractions analyzed by ultra-filtration and HPLC as in FIG. 10.
Ultrafiltration was used for the detection of complex formation with the water soluble ligands FA and DOX which have a distinctive absorption properties and can be determined by spectroscopic measurements. […] Several additional washing cycles remove all remaining free FA and DOX, and the ligand-SP1 complex remains in the retained fraction.
Size exclusion chromatography is a common method for separation of molecules of different sizes under mild conditions and was employed to test FA and DOX complex formation under mild conditions. SP1 is eluted from the column after 7 min and is detected at 278 nm only, and free FA is eluted from the column (TSK G3000 SWXL, Tosohaas) after 16 min and is detected at 490 nm. The SP1-FA and SP1-DOX complexes also eluted at the same time but is detected also at 490 and 475 nm, respectively. DOX/SP1 ratio is determine from the standard curve obtained in solution.
5. Can complexed ligand be stabilized by association with the Cys2 SP1? Fluoresceine amine (FA): FA absorption peak is at 490 nm and at much lower extend at 278 nm (for a given FA concentration OD278/OD490=0.19)(see FIG. 31), when SP1 absorption peak is at 278 nm (see FIG. 30), and it is not detected at 490 nm. […] FA complexing with the Cys2 Sp1 variant was determined following incubation of FA and Cys2 SP1 variant in the absence or presence of GSH, followed by protein oxidation, ultra filtration (30 kDa cutoff) and exhaustive wash of the retained fraction with PBS with or without GSH. Absorption analysis at both 278 and 490 nm.

Which results are given for “wild type: stress related SP1 protein from aspen (Populus tremula), recombinant, SEQ ID NO:1”?
protease resistance after hexane treatment ([1]; hexane-treated, data not shown): resistance to protease treatment; resistance of oligomeric complex to organic solvents ([1]; methanol, hexane, SDS-PAGE): Predominantly high molecular weight oligomer complex form; disassociation of the complex ([2]; 1734-fold SDS (1%), temperatures of 80° C. or lower): did not cause significant disassociation of the complex; molar ratio (SDS:SP1-monomer) required for dissociation of the complex to monomers ([2]; accompanied by boiling before loading onto the gel): greater than 600; state of SP1 on SDS-PAGE ([2]; without boiling, SDS ratio of 3467 to 1): remained as a complex; digestion of the intact oligomer by protease (proteinase K or alkalase): unable to digest the intact oligomer; animals without any pathological response ([3]; 35 mg/Kg iv on days 0, 9, 16, 23, 37 and 53, up to 55 days): Four out of six; liver histopathology ([3]; 55 days past the first injection): appeared normal; animals died ([3]; after 17 days, unknown reason): Two out of 6; Tm ([4]; Differential scanning calorimetry): 107 °C; Tm ([4]; protein melting point by DSC, in °C (unit assumed)): 107; FA complexing at low ligand concentration ([5]; 10 μM FA, 10 mM DTT): no discernable FA complexing; complex formation with the FA marker ([5]; presence or absence of reducing agents, size exclusion chromatography): hardly forms complexes
